In patent US20110150901A1:

Target: complex of FGFR1c and β-Klotho (recombinant proteins) (UniProt P11362)
Assay: AlphaScreen competition
Conditions: ligand

Chain of complex of FGFR1c and β-Klotho (recombinant proteins) (P11362 other isoform, or with tags, fused parts or gaps, chain 1 of 2): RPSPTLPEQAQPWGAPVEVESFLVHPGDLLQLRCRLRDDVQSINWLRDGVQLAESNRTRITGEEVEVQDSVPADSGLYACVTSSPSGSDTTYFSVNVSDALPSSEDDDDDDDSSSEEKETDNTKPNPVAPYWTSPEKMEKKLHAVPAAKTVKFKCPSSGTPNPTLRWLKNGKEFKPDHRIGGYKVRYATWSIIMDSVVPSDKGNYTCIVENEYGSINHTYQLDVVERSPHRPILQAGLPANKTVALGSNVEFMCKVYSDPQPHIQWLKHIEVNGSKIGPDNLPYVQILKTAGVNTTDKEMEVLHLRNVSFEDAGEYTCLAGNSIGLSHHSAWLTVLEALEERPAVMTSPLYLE
Chain of complex of FGFR1c and β-Klotho (recombinant proteins) (Q86Z14 53-996, chain 2 of 2, further chain): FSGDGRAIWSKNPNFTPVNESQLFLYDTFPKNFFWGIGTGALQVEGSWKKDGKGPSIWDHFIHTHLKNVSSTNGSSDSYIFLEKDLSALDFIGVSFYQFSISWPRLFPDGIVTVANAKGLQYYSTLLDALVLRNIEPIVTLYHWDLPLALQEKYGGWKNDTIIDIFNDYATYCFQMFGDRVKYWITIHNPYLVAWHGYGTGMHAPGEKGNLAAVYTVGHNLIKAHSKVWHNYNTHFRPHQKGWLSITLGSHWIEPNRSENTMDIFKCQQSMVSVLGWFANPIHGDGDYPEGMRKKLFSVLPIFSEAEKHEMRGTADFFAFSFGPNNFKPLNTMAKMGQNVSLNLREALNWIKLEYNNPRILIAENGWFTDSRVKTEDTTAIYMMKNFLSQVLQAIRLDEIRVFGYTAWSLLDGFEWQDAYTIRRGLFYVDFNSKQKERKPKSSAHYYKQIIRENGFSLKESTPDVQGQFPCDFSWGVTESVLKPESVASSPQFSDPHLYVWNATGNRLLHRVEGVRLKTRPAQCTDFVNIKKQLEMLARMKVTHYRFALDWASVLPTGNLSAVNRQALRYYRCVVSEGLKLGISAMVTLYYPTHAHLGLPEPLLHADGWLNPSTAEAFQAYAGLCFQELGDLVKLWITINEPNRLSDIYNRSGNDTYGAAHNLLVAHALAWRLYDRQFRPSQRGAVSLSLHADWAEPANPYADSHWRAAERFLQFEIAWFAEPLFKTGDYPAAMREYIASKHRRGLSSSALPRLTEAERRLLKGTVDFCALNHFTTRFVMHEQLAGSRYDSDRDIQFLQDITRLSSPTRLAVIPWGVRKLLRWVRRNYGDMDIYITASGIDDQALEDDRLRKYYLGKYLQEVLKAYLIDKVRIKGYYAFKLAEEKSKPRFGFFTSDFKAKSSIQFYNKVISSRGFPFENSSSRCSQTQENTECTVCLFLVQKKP

human FGF21 (from UniProt Q9NSA1 29-209)
IC50: 2.6 nM
